From PMC9590138

Biological target: recombinant soluble CD146 (UniProt P43121)
Experiment: ELISA; in-house ELISA: binding of αvβ3 to rsCD146, dissociation constant estimated; methods in Additional file 1, not shown

Kd: 1.8 nM
Substance: integrin αvβ3 (protein used in the in-house ELISA) (from UniProt P06756 31-1048; P05106 27-788) (receptor)
